The values below come from patent US20230416396A1 (Regeneron, published 2023).

By EC50 is commonly meant the concentration at which the effect is half-maximal. Read a low EC50 as higher potency in that assay.

Like-named read-outs stand apart in the source and are kept apart here.

Experiment [1] concerns the target T1, human 4-1BB on cells (human, UniProt Q07011 24-255). Put plainly: cell-based or functional assay.
Experiment [2] deals with T2, human CD38 endogenously expressed on MOLP8 cells (human, UniProt P28907 1-300).
T2 construct: whole, on cells; also called hCD38
In words: flow cytometry on MOLP8 cells (endogenous hCD38), APC anti-human secondary. On the procedure: (§1) The ability of the multispecific antigen binding molecules to bind cells was assessed using flow cytometry. Cell lines were chosen to determine the ability of both the anti-CD38 and anti-4-1BB arms to bind their targets. […] Binding was detected by using a labeled secondary antibody and measuring fluorescence on a flow cytometer.
HEK293 cells were lifted with trypsin, washed and resuspend in stain buffer (2% FBS in PBS). MOLP8 cells were washed and resuspended in stain buffer. Cells were added to wells of a 96 well V-bottom plate (3×10⁵ cells/well). A 1:4, 9-point, dose titration of test antibodies was diluted in stain buffer and added to cells to a final concentration ranging from 610 fM to 10 nM (a “no antibody” control was included as the ninth point (153fM), labeled as “secondary only”). Cells and antibodies were incubated for 30 min on ice and then washed in stain buffer. Cells were resuspended in 2 ug/ml allophycocyanin (APC) conjugated goat-anti human secondary antibody and incubated for 30 min on ice. Cells were then washed and resuspended in viability dye (according to the manufacturer's protocol) and incubated for 30 min on ice. Cells were then washed with stain buffer and resuspended in 2% PFA for 30 min on ice. After washing, cells were filtered and analyzed by flow cytometry to determine the geometric mean fluorescence intensity (gMFI), which was subsequently plotted using GraphPad Prism software. EC₅₀ values of the antibodies were determined from a 4-parameter logistic equation over a 9-point dose response curve (including secondary only control, representing the ninth point).

In experiment [3] the target is T1, human 4-1BB on cells. Put plainly: cell-based or functional assay. This is another data set of the same source.
Experiment [4] addresses T1, human 4-1BB on cells. In words: flow cytometry on HEK293/h4-1BB cells, APC anti-human secondary. On the procedure: as §1
HEK293 and HEK293/4-1BB cells were lifted with trypsin, washed and resuspended in stain buffer (2% FBS in PBS) and added to wells of a 96 well V-bottom plate (3×10⁵ cells/well). A 1:5, 9-point, dose titration of test antibodies was diluted in stain buffer and added to cells to a final concentration ranging from 1.3 pM to 100 nM (a “no antibody” control was included as the ninth point ([…]) labeled as “secondary only”). Cells and antibodies were incubated for 30 min on ice and then washed in stain buffer. Cells were resuspended in 2 ug/ml allophycocyanin (APC) conjugated goat-anti human secondary antibody and incubated for 30 min on ice. Cells were then washed and resuspended in viability dye (according to the manufacturer's protocol) and incubated for 30 min on ice. Cells were then washed with stain buffer and resuspended in 2% PFA for 30 min on ice. After washing, cells were filtered and analyzed by flow cytometry to determine the geometric mean fluorescence intensity (gMFI), which was subsequently plotted using GraphPad Prism software. EC₅₀ values of the antibodies were determined from a 4-parameter logistic equation over a 9-point dose response curve (including secondary only control).
In general terms: A flow cytometer gives signals particle by particle.

The target of experiment [5] is T1, human 4-1BB on cells. Put plainly: cell-based or functional assay. This is another data set of the same source.

T1 sequence (Q07011 24-255): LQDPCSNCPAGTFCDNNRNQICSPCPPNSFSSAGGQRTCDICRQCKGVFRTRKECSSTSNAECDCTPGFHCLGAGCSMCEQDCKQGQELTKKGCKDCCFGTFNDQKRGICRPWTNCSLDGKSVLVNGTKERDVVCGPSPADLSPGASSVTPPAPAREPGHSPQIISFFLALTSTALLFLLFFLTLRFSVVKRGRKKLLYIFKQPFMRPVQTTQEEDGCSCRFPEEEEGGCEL

B1: REGN7150 (bispecific antibody, human IgG4 S228P, kappa)
heavy 1: QVQLVQSGAEVKKPGSSVKVSCKASGGPFRSSSFSWVRQAPGQGLEWMGGIIPILGKTNYAQKFQGRITIVTDESTTTVYMELSSLRSEDTAVFYCVRGSSLFDYWGQGTLVTVSSASTKGPSVFPLAPCSRSTSESTAALGCLVKDYFPEPVTVSWNSGALTSGVHTFPAVLQSSGLYSLSSVVTVPSSSLGTKTYTCNVDHKPSNTKVDKRVESKYGPPCPPCPAPPVAGPSVFLFPPKPKDTLMISRTPEVTCVVVDVSQEDPEVQFNWYVDGVEVHNAKTKPREEQFNSTYRVVSVLTVLHQDWLNGKEYKCKVSNKGLPSSIEKTISKAKGQPREPQVYTLPPSQEEMTKNQVSLTCLVKGFYPSDIAVEWESNGQPENNYKTTPPVLDSDGSFFLYSRLTVDKSRWQEGNVFSCSVMHEALHNHYTQKSLSLSLGK
heavy 2: QVQLVQSGAEVKKPGASVKVSCKASAYTFTSYGFSWVRQAPGQGLEWMGWISTSNGYTNYAQKIQDRVTMTTDTSTSTAYMELRSLRSDDTAVYYCASLSNWVSFFDYWGQGTLVTVSSASTKGPSVFPLAPCSRSTSESTAALGCLVKDYFPEPVTVSWNSGALTSGVHTFPAVLQSSGLYSLSSVVTVPSSSLGTKTYTCNVDHKPSNTKVDKRVESKYGPPCPPCPAPPVAGPSVFLFPPKPKDTLMISRTPEVTCVVVDVSQEDPEVQFNWYVDGVEVHNAKTKPREEQFNSTYRVVSVLTVLHQDWLNGKEYKCKVSNKGLPSSIEKTISKAKGQPREPQVYTLPPSQEEMTKNQVSLTCLVKGFYPSDIAVEWESNGQPENNYKTTPPVLDSDGSFFLYSRLTVDKSRWQEGNVFSCSVMHEALHNRFTQKSLSLSPGK
light: not shown
notes: 1+1 format control, hIgG4P-PVA, common 3-20 light chain; also called CD38x4-1BB (1 + 1); 26871P2 x 25921P
In the case of B1, in experiment [1], the “EC50 of IL-2 release, T cells + NALM-6” value was determined as 108 pM; the “MAX IL-2 release, T cells + HEK293/CD20 + REGN2281” value was found to be 63 pg/mL; the “MAX IL-2 release, T cells + HEK293/CD20/CD38 + REGN2281” value came to 593 pg/mL; the “MAX IL-2 release, T cells + MOLP-8 + IsoC” value turned out to be 48 pg/mL. Further, in experiment [1], the “MAX IL-2 release, T cells + MOLP-8 + REGN5458” value is 32 pg/mL and the “MAX IL-2 release, T cells + NALM-6” value stood at 122 pg/mL. In addition, the “MAX gMFI” value in experiment [2] was 210000 gMFI. In experiment [3], the “EC50 of IFNγ release, T cells + HEK293/CD20/CD38 + REGN2281” value amounted to 780 pM; the “EC50 of IFNγ release, T cells + MOLP-8 + REGN5458” value amounted to 43.8 nM; the “MAX IFNγ release, T cells + HEK293/CD20 + REGN2281” value is 1840 pg/mL; the “MAX IFNγ release, T cells + HEK293/CD20/CD38 + REGN2281” value was 3950 pg/mL. For the same molecule, in experiment [3], the “MAX IFNγ release, T cells + MOLP-8 + IsoC” value is 56 pg/mL; the “MAX IFNγ release, T cells + MOLP-8 + REGN5458” value stood at 1300 pg/mL; the “MAX IFNγ release, T cells + NALM-6” value amounted to 620 pg/mL. Also, in experiment [4], the EC50 stood at 2.86 nM and the “MAX gMFI” value was 2.4e+06 gMFI. In addition, in experiment [5], the “EC50 of IL-2 release, T cells + HEK293/CD20/CD38 + REGN1979” value was roughly 100 pM; the “EC50 of IL-2 release, T cells + MOLP-8 + REGN5458” value was 63.4 nM; the “MAX IL-2 release, T cells + HEK293/CD20 + REGN1979” value is 182 pg/mL; the “MAX IL-2 release, T cells + HEK293/CD20/CD38 + IsoC” value was 12 pg/mL. Further, in experiment [5], the “MAX IL-2 release, T cells + HEK293/CD20/CD38 + REGN1979” value is 1300 pg/mL; the “MAX IL-2 release, T cells + MOLP-8 + IsoC” value worked out at 163 pg/mL; the “MAX IL-2 release, T cells + MOLP-8 + REGN5458” value was determined as 308 pg/mL.

B2: REGN7633 (bispecific antibody, human IgG4 S228P, kappa)
heavy 1: QVQLVQSGPEVKNPGAAVKVSCKASGYTFTRFGISWVRQAPGQGLEWMGWISVDNGNANYAQRFQGRVTMTTDTSTSTAYMELRSLRSDDTAVYYCAREWSIAAPGYLDYWGQGTLVTVSSASTKGPSVFPLAPCSRSTSESTAALGCLVKDYFPEPVTVSWNSGALTSGVHTFPAVLQSSGLYSLSSVVTVPSSSLGTKTYTCNVDHKPSNTKVDKRVESKYGPPGGGGSGGGGSGGGGSEVQLVESGGGLVQPGRSLRLSCAASGYTFDDYAMHWVRQAPGKGLEWVSGISWISDVIGYADSVKGRFTISRDNAKNSLYLQMNSLRAEDTALYYCAKDNGGIIVATHYYSYGMDVWGQGTTVTVSSASTKGPSVFPLAPCSRSTSESTAALGCLVKDYFPEPVTVSWNSGALTSGVHTFPAVLQSSGLYSLSSVVTVPSSSLGTKTYTCNVDHKPSNTKVDKRVESKYGPPCPPCPAPPVAGPSVFLFPPKPKDTLMISRTPEVTCVVVDVSQEDPEVQFNWYVDGVEVHNAKTKPREEQFNSTYRVVSVLTVLHQDWLNGKEYKCKVSNKGLPSSIEKTISKAKGQPREPQVYTLPPSQEEMTKNQVSLTCLVKGFYPSDIAVEWESNGQPENNYKTTPPVLDSDGSFFLYSRLTVDKSRWQEGNVFSCSVMHEALHNRFTQKSLSLSPGK
heavy 2: EVQLVESGGGLVQPGRSLRLSCAASGFTFDDYAMHWVRQAPGKGLEWVSGISWKSDNIGYADSVKGRFTISRDNAKNSLYLQMNSLRAEDTALYYCAKALGGWKFDYYYGMDVWGQGTTVTVSSASTKGPSVFPLAPCSRSTSESTAALGCLVKDYFPEPVTVSWNSGALTSGVHTFPAVLQSSGLYSLSSVVTVPSSSLGTKTYTCNVDHKPSNTKVDKRVESKYGPPCPPCPAPPVAGPSVFLFPPKPKDTLMISRTPEVTCVVVDVSQEDPEVQFNWYVDGVEVHNAKTKPREEQFNSTYRVVSVLTVLHQDWLNGKEYKCKVSNKGLPSSIEKTISKAKGQPREPQVYTLPPSQEEMTKNQVSLTCLVKGFYPSDIAVEWESNGQPENNYKTTPPVLDSDGSFFLYSRLTVDKSRWQEGNVFSCSVMHEALHNHYTQKSLSLSLGK
light: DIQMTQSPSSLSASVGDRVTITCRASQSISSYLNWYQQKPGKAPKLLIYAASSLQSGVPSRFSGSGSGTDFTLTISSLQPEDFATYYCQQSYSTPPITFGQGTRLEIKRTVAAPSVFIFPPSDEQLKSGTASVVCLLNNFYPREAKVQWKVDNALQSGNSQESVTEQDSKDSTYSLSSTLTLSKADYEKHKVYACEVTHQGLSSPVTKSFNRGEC
notes: 1+2 format, hIgG4P-PVA; also called CD38x4-1BB (1 + 2); 26812P2 x 25889P2 (IN) + 35388P2 (OUT)
For B2, in experiment [2], the “MAX gMFI” value stood at 88000 gMFI.
